Laboratory results as given in patent US20230242646A1 (JJP BIOLOGICS SP Z O O, published 2023).

Legend:
[1] = target: T1, membrane full-length cynomolgus monkey CD89 on HEK293F cells (cynomolgus monkey); experiment: FACS, transiently transfected HEK293F
T1 construct: also called cynoCD89; cynomolgus EC1-CD89
T1 chain: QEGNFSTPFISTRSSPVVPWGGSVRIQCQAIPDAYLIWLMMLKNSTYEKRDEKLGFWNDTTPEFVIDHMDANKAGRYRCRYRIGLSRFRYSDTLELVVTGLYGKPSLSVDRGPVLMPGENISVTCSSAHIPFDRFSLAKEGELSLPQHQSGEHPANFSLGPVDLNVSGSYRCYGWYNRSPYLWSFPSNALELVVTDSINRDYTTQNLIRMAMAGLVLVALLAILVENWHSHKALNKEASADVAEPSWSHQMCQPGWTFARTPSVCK

[2] = target: T2, chimeric human EC1-CD89/bovine EC2-Fcgamma2R (human TM and IC) on HEK293F cells (human/bovine chimera); experiment: FACS, 10 µg/mL, transiently transfected HEK293F
T2 construct: also called human EC1-CD89 (version with human transmembrane-intracellular region)
Method: (§1) To this end, transient transfected HEK293F cells were put at 10 × 10⁶ cells/mL in ice-chilled phosphate-buffered saline containing 0.1% BSA (Sigma)/0.05% NaN₃ (PBS/BSA/NaN₃) supplemented with 50 µg/mL human IgGs (blocking Fcy receptors; Sigma) for 10 minutes at 4° C. Then, 10 µL/tube (i.e., 0.1 × 10⁶ cells) of these cells were incubated with or without 100 µL purified mouse anti-human CD89 antibody at 10 µg/mL (in PBS/BSA/NaN₃) for 30 minutes at 4° C. […] After extensive washing in PBS/BSA/NaN₃, cells were subsequently incubated with 1:200 diluted PE-conjugated goat anti-mouse IgG Fcy-specific antibodies (Jackson ImmunoResearch) for 30 minutes at 4° C. After extensive washing in PBS/BSA/NaN₃, cells were fixed in 2% formaldehyde in PBS/BSA/NaN₃ for 30 minutes at 4° C.

[3] = target: T3, chimeric human EC1-CD89/bovine EC2-Fcgamma2R (bovine TM and IC) on HEK293F cells (human/bovine chimera); experiment: FACS, 10 µg/mL, transiently transfected HEK293F
T3 construct: also called human EC1-CD89 (version with bovine transmembrane-intracellular region)
Method: as §1

[4] = target: T4, recombinant C-terminal polyhistidine-tagged human (extracellular) CD89 (Sino Biological) (human, UniProt P24071 22-227); experiment: ELISA, coated rhuCD89
T4 construct: extracellular domain; bought protein; also called rhuCD89; soluble monomeric rhuCD89
Method: After extensive washing with PBS/0.05% Tween 20, plates were blocked with PBS/0.05% Tween 20/1% BSA (Roche) for 1 hour at RT. Subsequently, plates were incubated with 50 µL titrated (in block buffer) purified mouse anti-human CD89 antibody/well for 1 hour at RT. […] After extensive washing in PBS/0.05% Tween 20, binding of antibodies on rhuCD89 was determined with 1:5,000 diluted horseradish peroxidase (HRP)-conjugated goat anti-mouse IgG Fcy-specific antibodies (Jackson ImmunoResearch) for 1 hour at RT, followed by a ready-to-use solution of TMB substrate (Invitrogen) for colorimetric detection.
After extensive washing with PBS/0.05% Tween 20, plates were blocked with PBS/0.05% Tween 20/1% BSA (Roche) for 1 hour at RT. […] After extensive washing in PBS/0.05% Tween 20, binding of antibodies on rhuCD89 was determined with 1:5,000 diluted horseradish peroxidase (HRP)-conjugated goat anti-human IgG Fcy-specific antibodies (Jackson ImmunoResearch) for 1 hour at RT, followed by a ready-to-use solution of TMB substrate (Invitrogen) for colorimetric detection.

[5] = target: T4, recombinant C-terminal …; experiment: BLI (Octet RED96), biotinylated Ab on streptavidin tips, rhuCD89 analyte, 1:1 model
Method: Equilibrium dissociation constants (KD) were determined using a 1:1 Langmuir binding model in Octet® RED96 software (ForteBio).

[6] = target: T5, membrane-bound full-length human CD89 on HEK293F cells (human, UniProt P24071 22-287); experiment: FACS HEK293F-huCD89, 10 ug/mL; competitor PE-MIP8a
T5 construct: 2 or transient transfectants; also called membrane human CD89; human FcaRI
Method: (§2) Then, 10 µL/tube (i.e., 0.1 × 10⁶ cells) of these cells were incubated with or without 100 µL purified mouse anti-human CD89 antibody at 10 µg/mL (in PBS/BSA/NaN₃) for 30 minutes at 4° C. […] After extensive washing in PBS/BSA/NaN₃, cells were fixed in 2% formaldehyde in PBS/BSA/NaN₃ for 30 minutes at 4° C.

[7] = target: T6, chimeric human/cynomolgus monkey CD89-I on HEK293F cells (human/cynomolgus chimera, UniProt P24071 22-287); experiment: FACS, 10 µg/mL, transiently transfected HEK293F
T6 construct: also called dGln22 - Lys46 human EC1-CD89; I (22-46)
T6 chain: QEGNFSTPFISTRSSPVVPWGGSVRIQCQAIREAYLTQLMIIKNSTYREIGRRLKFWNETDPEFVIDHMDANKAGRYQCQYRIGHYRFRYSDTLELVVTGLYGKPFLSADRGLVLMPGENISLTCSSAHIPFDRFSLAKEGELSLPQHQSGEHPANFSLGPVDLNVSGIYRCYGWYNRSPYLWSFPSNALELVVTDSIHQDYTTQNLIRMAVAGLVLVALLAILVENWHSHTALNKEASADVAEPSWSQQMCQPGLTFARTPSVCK
Method: To this end, transient transfected HEK293F cells were put at 10 × 10⁶ cells/mL in ice-chilled phosphate-buffered saline containing 0.1% BSA (Sigma)/0.05% NaN₃ (PBS/BSA/NaN₃) supplemented with 50 µg/mL human IgGs (blocking FcY receptors; Sigma) for 10 minutes at 4° C. Then, 10 µL/tube (i.e., 0.1 × 10⁶ cells) of these cells were incubated with or without 100 µL purified mouse anti-human CD89 antibody at 10 µg/mL (in PBS/BSA/NaN₃) for 30 minutes at 4° C. […] After extensive washing in PBS/BSA/NaN₃, cells were subsequently incubated with 1:200 diluted PE-conjugated goat anti-mouse IgG Fcy-specific antibodies (Jackson ImmunoResearch) for 30 minutes at 4° C. After extensive washing in PBS/BSA/NaN₃, cells were fixed in 2% formaldehyde in PBS/BSA/NaN₃ for 30 minutes at 4° C.

[8] = target: T5, membrane-bound full-length human CD89 …; experiment: FACS HEK293F-huCD89, 10 ug/mL; competitor PE-A59
Method: as §2

[9] = target: T5, membrane-bound full-length human CD89 …; experiment: FACS, antibody before serum IgA on HEK293F-huCD89; IgA detected
[10] = target: membrane human CD89 on ex vivo primary human neutrophilic granulocytes or monocytic U937 cells (human, UniProt P24071 22-287); experiment: cell-based or functional assay
[11] = target: T7, chimeric bovine EC1-Fcgamma2R/human EC2-CD89 on HEK293F cells (bovine/human chimera); experiment: FACS, transiently transfected HEK293F
T7 chain: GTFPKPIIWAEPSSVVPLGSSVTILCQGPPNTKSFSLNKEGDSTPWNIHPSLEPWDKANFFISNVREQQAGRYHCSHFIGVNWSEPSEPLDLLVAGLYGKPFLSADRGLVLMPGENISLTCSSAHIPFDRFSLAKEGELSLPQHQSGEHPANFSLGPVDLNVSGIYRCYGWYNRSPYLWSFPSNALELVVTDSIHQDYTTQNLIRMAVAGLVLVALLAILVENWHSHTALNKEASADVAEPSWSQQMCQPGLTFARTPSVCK
Method: as §1

[12] = target: T8, membrane full-length bovine Fcgamma2R on HEK293F cells (bovine); experiment: FACS, transiently transfected HEK293F
T8 construct: also called bovine Fcy2R
T8 chain: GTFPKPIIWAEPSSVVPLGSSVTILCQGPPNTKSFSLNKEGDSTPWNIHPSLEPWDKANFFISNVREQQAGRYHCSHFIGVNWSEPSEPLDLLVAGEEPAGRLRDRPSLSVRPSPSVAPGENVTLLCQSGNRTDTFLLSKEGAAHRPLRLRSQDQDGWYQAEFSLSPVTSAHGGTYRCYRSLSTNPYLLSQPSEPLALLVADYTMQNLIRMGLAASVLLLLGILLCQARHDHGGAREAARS
Method: as §1

[13] = target: T4, recombinant C-terminal …; experiment: ELISA, antibody before serum IgA on coated rhuCD89; IgA detected
[14] = target: T5, membrane-bound full-length human CD89 …; experiment: FACS, antibody before secretory IgA on HEK293F-huCD89; IgA detected
Method: Then, 10 µL/tube (i.e., 0.1 x 10⁶ cells) of these cells were incubated with or without 50 µL titrated (in PBS/BSA/NaN₃) purified mouse anti-human CD89 antibody/tube for 30 minutes at 4° C. […] After extensive washing in PBS/BSA/NaN₃, 1:200 diluted PE-conjugated streptavidin (Jackson ImmunoResearch) was added, and incubated for 30 minutes at 4° C. After extensive washing in PBS/BSA/NaN₃, cells were fixed in 4% formaldehyde in PBS/BSA/NaN₃ for 30 minutes at 4° C.

- binding result [1]: no binding (tested: 10 µg/mL)
- binding result [2]: binds
- binding result [3]: binds
- EC50 [4]: 0.02 µg/mL
- Kd [5]: 1.67 nM
- koff [5]: 0.00111 s⁻¹
- kon [5]: 687000 M⁻¹ s⁻¹
- % blocking of PE-MIP8a binding [6]: < 25%
- binding result [7]: binds
- % blocking of PE-A59 binding [8]: < 25%
- IC50 (read off the curve) [9]: ~0.7 µg/mL
- IC50 (read off the bars), binding of granulocytes to plate-bound serum IgA [Donor 2] [10]: ~0.4 µg/mL
- binding result [11]: no binding (tested: 10 µg/mL)
- binding result [12]: no binding (tested: 10 µg/mL)
- IC50 (read off the curve) [13]: ~0.06 µg/mL
- IC50 (read off the curve) [14]: ~1 µg/mL
B1: CD89/IgA blocking mouse anti-human CD89-specific antibody 10E7 (antibody, V domains shown)
VH: EVQLVESGGGLVQPGGSLKLSCAASGLTFSSYGMSWVRQTPDKRLELVATINGNGDITYYPDSVKGRFTISRDNAKNTLYLQMSSLKSEDTAMYYCARDYDYDYAMDYWGQGTSVTVSS
VL: DIQMTQSTSSLSASLGDSVTISCRASQDIINYLNWYQQKPDGTVKLLIYYTSRLHSGVPSRFSGSGSGTEYSLTVSNLEKEDIATYFCQQGKTLPYTFGGGTKLEIK
notes: biotinylated in the Octet assay; also called mouse 10E7
